This is an account of results in PMC6290019 (2018).

Assay [1] concerns the target T1, Im^wt2 (Escherichia coli, UniProt P04482 1-86).
T1 chain: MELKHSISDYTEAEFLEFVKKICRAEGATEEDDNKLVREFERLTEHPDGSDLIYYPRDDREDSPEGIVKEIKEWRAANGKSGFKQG
Kind of assay: SPR. (In general: Surface plasmon resonance follows binding to a sensor surface in real time, without labels.)

Assay [2] concerns the target T1, Im^wt2. Kind of assay: SPR.
The target in assay [3] is T1, Im^wt2. Put plainly: value from previous stopped-flow measurements.
The target in assay [4] is T2, Im^des7.
T2 chain: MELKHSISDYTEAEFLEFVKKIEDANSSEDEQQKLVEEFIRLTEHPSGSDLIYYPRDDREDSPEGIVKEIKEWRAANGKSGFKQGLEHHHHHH
Put plainly: SPR; two-state reaction fit, koff1.

The target of assay [5] is T2, Im^des7. Kind of assay: SPR; two-state reaction fit, koff2.
The target in assay [6] is colE of designed pair 5 (cognate colE of Im^des5). Kind of assay: SPR; two-state reaction fit.
For assay [7] the target is unchanged. Put plainly: SPR; two-state reaction fit, koff1.
For assay [8] the target is unchanged. Put plainly: SPR; two-state reaction fit, koff2.
Another assay deals with colE^des2. Kind of assay: SPR.
For a further assay, the target named is colE^des1. Kind of assay: SPR.
The target in a further assay is T3, Im^des3.
T3 chain: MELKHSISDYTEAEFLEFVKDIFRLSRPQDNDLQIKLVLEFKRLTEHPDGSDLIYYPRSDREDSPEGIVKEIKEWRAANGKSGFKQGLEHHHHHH
Kind of assay: SPR.

A further assay concerns the target T4, Im^des8.
T4 chain: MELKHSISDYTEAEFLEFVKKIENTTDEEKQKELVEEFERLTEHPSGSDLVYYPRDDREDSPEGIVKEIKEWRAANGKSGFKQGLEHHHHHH
Kind of assay: SPR.

Assay [9] has as its target T1, Im^wt2. Kind of assay: SPR.
The next assay has as its target colE^des8. Put plainly: SPR.
Assay [10] deals with colE of designed pair 6 (cognate colE of Im^des6). Put plainly: SPR; two-state reaction fit.
Assay [11] shares this target. Put plainly: SPR; two-state reaction fit, koff1.
For assay [12] the target is unchanged. Kind of assay: SPR; two-state reaction fit, koff2.

Changes are numbered by the printed parent chain.

B1: colE^wt2 (His127Ala) (enzyme)
chain: MESKRNKPGKATGKGKPVGDKWLDDAGKDSGAPIPDRIADKLRDKEFKNFDDFRKKFWEEVSKDPDLSKQFKGSNKTNIQKGKAPFARKKDQVGGRERFELHHDKPISQDGGVYDMNNIRVTTPKRAIDIHRGK
As to B1, the Kd in the assay with Im^wt2 [1] was < 0.1 nM; in the assay with Im^wt2 [3], 0.004 pM. The molecule also yielded a koff with Im^wt2 [2] of 0.00016 s⁻¹.

B2: colE^des7 (designed binder)
chain: MESKRNKPGKATGKGKPVGDKWLDDAGKDSGAPIPDRIADKLRDKEFKNFDDFRKKFWEEVSKDPDLAKQFKRSNRKRIQQGYAPFAPQKDQVGGRTTFELHHDKPISQDGGVYDMNNIRVTTPKRAIDIHRGK
Take B2: the koff with Im^des7 [4] turned out to be 0.014 s⁻¹; with Im^des7 [5], 0.0014 s⁻¹.

B3: Im^des5 (designed binder)
chain: T4 chain with E23C, T26D, D27N, E29N, K30V, K32F, E33K, E36T, S46D, V51I
Turning to B3, the Kd in assay [6] came out at 35 nM. Further, the koff in assay [7] came out at 0.023 s⁻¹; in [8] it was 0.0011 s⁻¹.

B4: Im^des2 (designed binder)
chain: T4 chain with E23Y, T25S, E36T, V51I
As to B4, in the assay with colE^des2, the Kd turned out to be 0.32 nM and the koff stood at 0.00041 s⁻¹.

B5: Im^des1 (designed binder)
chain: MELKHSISDYTEAEFLEFVKKIYSKGKLDQKLRWVEEFVRLTEHPSGSDLIYYPRDDREDSPEGIVKEIKEWRAANGKSGFKQGLEHHHHHH
For B5, the koff in the assay with colE^des1 was 0.00033 s⁻¹.

B6: colE^des3 (designed binder)
chain: MESKRNKPGKATGKGKPVGDKWLDDAGKDSGAPIPDRIADKLRDKEFKNFDDFRKKFWKEVAKDPDLAKQFSKANQRNIKDGNAPFARESDQVGGRTTYELHHDKPISQDGGVYDMNNIRVTTPKRAIDIHRGK
B6 displayed a koff with Im^des3 of 0.019 s⁻¹. The Kd with Im^des8 and with Im^wt2 [9] was > 100000 nM throughout.

B7: Im^des4 (designed binder)
chain: MELKHSISDYTEAEFLEFVKKIDLASSGGGGNELLSRALVEEFERLTEHPDGSDLIYYPRDDREDSPEGIVKEIKEWRAANGKSGFKQGLEHHHHHH
As to B7, the dissociation constant Kd with colE^des8 was > 100000 nM.

B8: Im^des6 (designed binder)
chain: MELKHSISDYTEAEFLEFVKKIFSQGRLEETRPLVEEFERLTEHPDGSDLVYYPRDDREDSPEGIVKEIKEWRAANGKSGFKQGLEHHHHHH
Molecule B8 gave a Kd in assay [10] of 161 nM. Also, the koff is 0.29 s⁻¹ in assay [11] and 0.00026 s⁻¹ in assay [12].

A word on the Kd: it is the constant that tells how readily two partners part at equilibrium. By koff is commonly meant the rate constant with which the complex falls apart. Read a high koff as a short-lived complex.
